{"source": "patent US20220396813", "assay_in_all_cases": "cell_activity", "key": {"[1]": {"tested_on": "T1, Rec7 WP_005715799.1 (Aggregatibacter segnis)", "T1 sequence": "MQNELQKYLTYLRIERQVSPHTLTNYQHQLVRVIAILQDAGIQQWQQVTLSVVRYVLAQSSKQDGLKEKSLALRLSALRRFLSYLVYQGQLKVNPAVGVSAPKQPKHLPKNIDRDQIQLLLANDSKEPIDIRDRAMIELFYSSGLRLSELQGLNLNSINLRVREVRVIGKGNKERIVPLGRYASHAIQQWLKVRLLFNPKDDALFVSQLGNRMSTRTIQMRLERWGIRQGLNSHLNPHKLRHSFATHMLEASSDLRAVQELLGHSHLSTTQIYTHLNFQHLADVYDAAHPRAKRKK", "conditions": "HEK293T inversion; background 0.2565"}, "[2]": {"tested_on": "T2, Rec3 WP_006718580.1 (Aggregatibacter segnis)", "T2 sequence": "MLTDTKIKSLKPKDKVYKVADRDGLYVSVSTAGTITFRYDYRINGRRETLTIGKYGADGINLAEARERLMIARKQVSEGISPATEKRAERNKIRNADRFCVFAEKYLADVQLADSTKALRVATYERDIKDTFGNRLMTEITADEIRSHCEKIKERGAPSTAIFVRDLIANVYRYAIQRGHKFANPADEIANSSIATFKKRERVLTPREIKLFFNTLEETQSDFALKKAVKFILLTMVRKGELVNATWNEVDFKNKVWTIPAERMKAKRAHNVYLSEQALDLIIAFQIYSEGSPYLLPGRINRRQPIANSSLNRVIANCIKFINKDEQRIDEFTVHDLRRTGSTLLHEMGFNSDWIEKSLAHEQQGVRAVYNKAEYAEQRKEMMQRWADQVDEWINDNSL", "conditions": "HEK293T inversion; background 0.2565"}, "[3]": {"tested_on": "T3, Rec2 WP_006717173.1 (Aggregatibacter segnis)", "T3 sequence": "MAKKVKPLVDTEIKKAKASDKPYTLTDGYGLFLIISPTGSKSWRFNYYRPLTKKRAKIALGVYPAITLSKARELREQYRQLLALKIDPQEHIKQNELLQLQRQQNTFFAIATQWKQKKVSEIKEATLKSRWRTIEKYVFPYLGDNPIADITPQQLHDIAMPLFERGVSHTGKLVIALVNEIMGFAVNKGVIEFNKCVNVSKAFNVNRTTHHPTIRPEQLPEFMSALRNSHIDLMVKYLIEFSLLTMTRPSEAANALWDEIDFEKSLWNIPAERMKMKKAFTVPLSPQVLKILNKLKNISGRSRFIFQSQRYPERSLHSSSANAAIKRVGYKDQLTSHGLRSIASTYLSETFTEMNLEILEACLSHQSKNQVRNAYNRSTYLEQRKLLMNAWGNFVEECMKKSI", "conditions": "HEK293T inversion; background 0.2565; repeat 0.27 vs 0.265"}, "[4]": {"tested_on": "T4, Rec5 WP_109859198.1 (Aggregatibacter segnis)", "T4 sequence": "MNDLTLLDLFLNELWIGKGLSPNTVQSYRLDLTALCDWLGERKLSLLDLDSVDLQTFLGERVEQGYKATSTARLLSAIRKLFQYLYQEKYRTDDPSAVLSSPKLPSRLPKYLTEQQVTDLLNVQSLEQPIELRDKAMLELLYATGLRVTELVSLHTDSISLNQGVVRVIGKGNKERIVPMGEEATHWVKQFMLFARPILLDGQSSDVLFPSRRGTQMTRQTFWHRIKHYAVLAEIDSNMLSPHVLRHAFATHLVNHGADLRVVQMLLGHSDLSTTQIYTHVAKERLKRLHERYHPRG", "conditions": "HEK293T inversion; background 0.265"}, "[5]": {"tested_on": "T5, Rec4 WP_006719234.1 (Aggregatibacter segnis)", "T5 sequence": "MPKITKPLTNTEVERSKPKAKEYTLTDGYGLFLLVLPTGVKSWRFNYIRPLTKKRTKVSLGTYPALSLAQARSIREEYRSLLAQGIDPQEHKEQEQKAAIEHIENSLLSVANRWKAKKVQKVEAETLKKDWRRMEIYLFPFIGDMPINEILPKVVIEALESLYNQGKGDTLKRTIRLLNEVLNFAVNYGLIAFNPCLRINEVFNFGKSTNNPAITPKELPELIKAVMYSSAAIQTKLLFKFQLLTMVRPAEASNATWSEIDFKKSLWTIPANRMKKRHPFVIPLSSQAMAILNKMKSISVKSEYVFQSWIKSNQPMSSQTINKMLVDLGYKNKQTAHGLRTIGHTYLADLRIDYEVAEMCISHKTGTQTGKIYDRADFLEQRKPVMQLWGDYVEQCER", "conditions": "HEK293T inversion; background 0.2565"}, "[6]": {"tested_on": "T6, Rec6 WP_006717195.1 (Aggregatibacter segnis)", "T6 sequence": "T4 sequence with G40S, D201N", "conditions": "HEK293T inversion; background 0.2565"}, "[7]": {"tested_on": "T7, Rec8 WP_017740000.1 (Scytonema hofmannii)", "T7 sequence": "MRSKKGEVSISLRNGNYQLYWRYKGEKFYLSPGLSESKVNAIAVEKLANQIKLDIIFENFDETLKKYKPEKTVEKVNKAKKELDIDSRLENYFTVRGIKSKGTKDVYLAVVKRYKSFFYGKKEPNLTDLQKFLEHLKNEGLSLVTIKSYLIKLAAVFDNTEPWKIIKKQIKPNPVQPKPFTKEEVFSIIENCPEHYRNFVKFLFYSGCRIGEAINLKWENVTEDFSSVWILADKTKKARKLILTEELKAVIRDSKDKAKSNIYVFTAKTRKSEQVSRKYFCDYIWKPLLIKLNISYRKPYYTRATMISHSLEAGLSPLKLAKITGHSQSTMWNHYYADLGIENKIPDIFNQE", "conditions": "HEK293T inversion; background 0.264"}, "[8]": {"tested_on": "T8, Rec10 WP_017746151.1 (Scytonema hofmannii)", "T8 sequence": "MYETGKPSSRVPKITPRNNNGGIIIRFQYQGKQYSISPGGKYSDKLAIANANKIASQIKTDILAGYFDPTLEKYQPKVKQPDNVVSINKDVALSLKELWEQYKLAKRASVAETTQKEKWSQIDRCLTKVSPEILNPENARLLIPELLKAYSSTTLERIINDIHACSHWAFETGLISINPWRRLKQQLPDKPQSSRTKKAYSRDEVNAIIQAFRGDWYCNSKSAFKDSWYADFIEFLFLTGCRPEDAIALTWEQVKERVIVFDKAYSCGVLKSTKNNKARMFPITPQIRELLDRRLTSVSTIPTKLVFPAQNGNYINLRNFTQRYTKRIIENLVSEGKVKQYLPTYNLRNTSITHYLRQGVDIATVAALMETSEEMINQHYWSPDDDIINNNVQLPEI", "conditions": "HEK293T inversion; background 0.264"}, "[9]": {"tested_on": "T9, Rec9 WP_017744257.1 (Scytonema hofmannii)", "T9 sequence": "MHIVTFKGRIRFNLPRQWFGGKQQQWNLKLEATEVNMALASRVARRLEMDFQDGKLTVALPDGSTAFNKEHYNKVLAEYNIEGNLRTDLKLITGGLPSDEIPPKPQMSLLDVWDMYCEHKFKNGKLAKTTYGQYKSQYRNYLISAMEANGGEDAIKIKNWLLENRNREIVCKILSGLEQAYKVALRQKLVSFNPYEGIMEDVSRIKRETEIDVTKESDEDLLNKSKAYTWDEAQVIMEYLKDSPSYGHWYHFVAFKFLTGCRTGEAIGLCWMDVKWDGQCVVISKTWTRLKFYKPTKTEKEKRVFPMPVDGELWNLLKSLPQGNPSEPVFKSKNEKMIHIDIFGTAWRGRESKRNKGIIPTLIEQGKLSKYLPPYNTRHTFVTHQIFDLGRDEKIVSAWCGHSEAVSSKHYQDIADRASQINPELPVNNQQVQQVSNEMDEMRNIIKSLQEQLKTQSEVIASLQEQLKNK", "conditions": "HEK293T inversion; background 0.264"}, "[10]": {"tested_on": "T10, Rec12 WP_038150898.1 (Veillonella montpellierensis)", "T10 sequence": "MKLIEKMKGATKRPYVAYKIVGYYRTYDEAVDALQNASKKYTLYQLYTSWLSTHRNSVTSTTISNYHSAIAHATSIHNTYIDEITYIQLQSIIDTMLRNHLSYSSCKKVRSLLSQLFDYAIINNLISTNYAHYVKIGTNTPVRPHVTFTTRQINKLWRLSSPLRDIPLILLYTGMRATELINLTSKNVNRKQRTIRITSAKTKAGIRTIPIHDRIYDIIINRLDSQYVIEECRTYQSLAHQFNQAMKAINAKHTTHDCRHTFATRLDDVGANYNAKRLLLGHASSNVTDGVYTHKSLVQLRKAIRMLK", "conditions": "HEK293T inversion; background 0.07465"}, "[11]": {"tested_on": "T11, Rec11 WP_038150996.1 (Veillonella montpellierensis)", "T11 sequence": "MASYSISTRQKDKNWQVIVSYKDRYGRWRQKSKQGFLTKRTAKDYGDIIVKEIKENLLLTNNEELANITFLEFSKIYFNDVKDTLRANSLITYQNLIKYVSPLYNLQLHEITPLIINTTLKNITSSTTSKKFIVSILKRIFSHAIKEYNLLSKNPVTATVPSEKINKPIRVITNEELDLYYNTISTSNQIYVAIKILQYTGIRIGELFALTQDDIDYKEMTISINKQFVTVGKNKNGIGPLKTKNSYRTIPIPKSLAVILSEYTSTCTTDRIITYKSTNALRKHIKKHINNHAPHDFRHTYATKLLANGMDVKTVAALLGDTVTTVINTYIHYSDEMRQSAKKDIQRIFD", "conditions": "HEK293T inversion; background 0.07465"}, "[12]": {"tested_on": "T12, Rec23 WP_047824597.1 (Croceicoccus naphthovorans)", "T12 sequence": "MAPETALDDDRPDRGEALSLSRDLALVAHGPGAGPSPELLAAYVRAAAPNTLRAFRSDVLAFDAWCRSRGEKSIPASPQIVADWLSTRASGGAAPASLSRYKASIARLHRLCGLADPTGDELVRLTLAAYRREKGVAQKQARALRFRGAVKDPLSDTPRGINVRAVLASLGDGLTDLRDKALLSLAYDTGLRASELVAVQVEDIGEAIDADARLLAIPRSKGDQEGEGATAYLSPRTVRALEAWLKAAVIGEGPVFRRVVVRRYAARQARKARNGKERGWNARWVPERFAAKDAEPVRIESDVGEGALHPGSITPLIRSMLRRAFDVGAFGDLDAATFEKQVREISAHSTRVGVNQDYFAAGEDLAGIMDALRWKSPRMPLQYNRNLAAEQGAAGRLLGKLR", "conditions": "HEK293T inversion; background 0.81"}, "[13]": {"tested_on": "T13, Rec27 WP_021170377.1 (Sporomusa sp.)", "T13 sequence": "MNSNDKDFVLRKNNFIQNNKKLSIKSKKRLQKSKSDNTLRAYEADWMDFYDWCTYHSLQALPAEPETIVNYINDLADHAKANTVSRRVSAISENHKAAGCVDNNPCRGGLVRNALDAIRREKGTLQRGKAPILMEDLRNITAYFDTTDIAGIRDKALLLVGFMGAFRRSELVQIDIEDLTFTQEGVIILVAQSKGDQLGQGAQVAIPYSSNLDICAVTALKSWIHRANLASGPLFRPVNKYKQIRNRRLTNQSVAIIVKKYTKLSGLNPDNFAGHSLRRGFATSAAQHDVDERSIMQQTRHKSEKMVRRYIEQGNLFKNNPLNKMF", "conditions": "HEK293T inversion; background 6.51"}, "[14]": {"tested_on": "T14, Rec13 WP_126045042.1 (Candidatus Aquarickettsia)", "T14 sequence": "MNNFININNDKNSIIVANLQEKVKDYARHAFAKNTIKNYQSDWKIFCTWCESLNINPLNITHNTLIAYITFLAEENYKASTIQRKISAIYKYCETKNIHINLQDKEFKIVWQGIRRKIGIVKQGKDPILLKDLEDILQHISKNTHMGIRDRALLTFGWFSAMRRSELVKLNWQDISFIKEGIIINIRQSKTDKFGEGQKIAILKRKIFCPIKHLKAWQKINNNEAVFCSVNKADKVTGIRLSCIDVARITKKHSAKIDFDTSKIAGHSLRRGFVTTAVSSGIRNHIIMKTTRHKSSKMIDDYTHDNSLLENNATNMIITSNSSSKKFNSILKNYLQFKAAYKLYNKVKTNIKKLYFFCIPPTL", "conditions": "HEK293T inversion; background 5.795"}}, "note": "Residue numbers refer to the chain shown, from its start."}
{"sequence": "AATAAAGGGAATNNNNNNNNATTCCCTTTATT (double strand) [Rec2-7 natural site]", "values": [{"measurement": "activity", "setting": "[1]", "result": 0.108, "unit": "% GFP+"}, {"measurement": "activity", "setting": "[2]", "result": 0.096, "unit": "% GFP+"}, {"measurement": "activity", "setting": "[3]", "result": 0.133, "unit": "% GFP+"}, {"measurement": "activity", "setting": "[4]", "result": 0.195, "unit": "% GFP+"}, {"measurement": "activity", "setting": "[5]", "result": 0.134, "unit": "% GFP+"}, {"measurement": "activity", "setting": "[6]", "result": 0.135, "unit": "% GFP+"}]}
{"sequence": "CAATTTTTGAAANNNNNNNTTTCAAAAATTG (double strand) [Rec8-10 natural site]", "values": [{"measurement": "activity", "setting": "[7]", "result": 0.165, "unit": "% GFP+"}, {"measurement": "activity", "setting": "[8]", "result": 0.168, "unit": "% GFP+"}, {"measurement": "activity", "setting": "[9]", "result": 0.133, "unit": "% GFP+"}]}
{"sequence": "CACTGATATATANNNNNNNTATATATCAGTG (double strand) [Rec11-12 natural site]", "values": [{"measurement": "activity", "setting": "[10]", "result": 0.031, "unit": "% GFP+"}, {"measurement": "activity", "setting": "[11]", "result": 0.0237, "unit": "% GFP+"}]}
{"sequence": "GGACATGTGATANNNNNNNNTATCACATGTTG (double strand) [Rec23 natural site]", "values": [{"measurement": "activity", "setting": "[12]", "result": 43.3, "unit": "% GFP+"}]}
{"sequence": "TAACTAATGATANNNNNNNNNTATCACTAGTTG (double strand) [Rec27 natural site]", "values": [{"measurement": "activity", "setting": "[13]", "result": 62.7, "unit": "% GFP+"}]}
{"sequence": "TAATGTTCTATANNNNNNNNTATAAAACACTA (double strand) [Rec13 natural site]", "values": [{"measurement": "activity", "setting": "[14]", "result": 4.46, "unit": "% GFP+"}]}
